Results: article PMC4654454 (ACS chemical biology, 2015)

Molecular target: nucleosome core particle labeled with H4Kc20me2
Test: native gel or EMSA

Substance: human Origin Recognition Complex subunit 1 BAH domain, R105Q mutant (from UniProt Q13415 45-171) (domain or fragment)
- fold reduction of affinity against wild type hORC1BAH: > 2 fold
